These results are taken from patent US20230002496A1 (STAIDSON BEIJING BIOPHARMACEUTICALS, published 2023).

T1: human GM-CSFRα, full length on cells (human, UniProt P15509 23-400)
T1 sequence: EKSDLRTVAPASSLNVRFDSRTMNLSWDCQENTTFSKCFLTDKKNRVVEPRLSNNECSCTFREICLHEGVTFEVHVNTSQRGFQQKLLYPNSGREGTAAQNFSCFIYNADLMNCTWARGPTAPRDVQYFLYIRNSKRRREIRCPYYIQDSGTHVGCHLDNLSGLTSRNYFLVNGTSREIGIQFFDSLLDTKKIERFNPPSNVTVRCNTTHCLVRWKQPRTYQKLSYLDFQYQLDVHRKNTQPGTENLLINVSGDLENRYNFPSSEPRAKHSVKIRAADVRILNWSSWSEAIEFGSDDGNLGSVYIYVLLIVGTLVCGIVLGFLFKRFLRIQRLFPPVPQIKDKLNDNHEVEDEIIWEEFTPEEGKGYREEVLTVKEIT

B1: E35-scFv LG50S (scFv, V domains shown)
VH: QMQLVQSGAEVKKPGASVKVSCKVSGYTLTELSIHWVRQAPGKGLEWMGGFDPEDGETIYAQKFQGRVTMTGDTSTDTAYLELSSLRSEDTALYYCATGRYTSLATTYGFDYWGQGTLVTVSS
VL: EIVMTQSPATLSLSPGERATLSCRASQSVSSYLAWYQQKPGQAPRLLIYSASSRATGIPDRFSGSGSGTDFTLTISRLEPEDFAVYYCQQYDNWPYTFGQGTKLEIK
B2: E35-scFv LG50P (scFv, V domains shown)
VH: QMQLVQSGAEVKKPGASVKVSCKVSGYTLTELSIHWVRQAPGKGLEWMGGFDPEDGETIYAQKFQGRVTMTGDTSTDTAYLELSSLRSEDTALYYCATGRYTSLATTYGFDYWGQGTLVTVSS
VL: EIVMTQSPATLSLSPGERATLSCRASQSVSSYLAWYQQKPGQAPRLLIYPASSRATGIPDRFSGSGSGTDFTLTISRLEPEDFAVYYCQQYDNWPYTFGQGTKLEIK
B3: E35-scFv LG50E (scFv, V domains shown)
VH: QMQLVQSGAEVKKPGASVKVSCKVSGYTLTELSIHWVRQAPGKGLEWMGGFDPEDGETIYAQKFQGRVTMTGDTSTDTAYLELSSLRSEDTALYYCATGRYTSLATTYGFDYWGQGTLVTVSS
VL: EIVMTQSPATLSLSPGERATLSCRASQSVSSYLAWYQQKPGQAPRLLIYEASSRATGIPDRFSGSGSGTDFTLTISRLEPEDFAVYYCQQYDNWPYTFGQGTKLEIK
B4: E35-scFv LG50H (scFv, V domains shown)
VH: QMQLVQSGAEVKKPGASVKVSCKVSGYTLTELSIHWVRQAPGKGLEWMGGFDPEDGETIYAQKFQGRVTMTGDTSTDTAYLELSSLRSEDTALYYCATGRYTSLATTYGFDYWGQGTLVTVSS
VL: EIVMTQSPATLSLSPGERATLSCRASQSVSSYLAWYQQKPGQAPRLLIYHASSRATGIPDRFSGSGSGTDFTLTISRLEPEDFAVYYCQQYDNWPYTFGQGTKLEIK
B5: E35-scFv LD92M (scFv, V domains shown)
VH: QMQLVQSGAEVKKPGASVKVSCKVSGYTLTELSIHWVRQAPGKGLEWMGGFDPEDGETIYAQKFQGRVTMTGDTSTDTAYLELSSLRSEDTALYYCATGRYTSLATTYGFDYWGQGTLVTVSS
VL: EIVMTQSPATLSLSPGERATLSCRASQSVSSYLAWYQQKPGQAPRLLIYGASSRATGIPDRFSGSGSGTDFTLTISRLEPEDFAVYYCQQYMNWPYTFGQGTKLEIK
B6: E35-scFv LD92H (scFv, V domains shown)
VH: QMQLVQSGAEVKKPGASVKVSCKVSGYTLTELSIHWVRQAPGKGLEWMGGFDPEDGETIYAQKFQGRVTMTGDTSTDTAYLELSSLRSEDTALYYCATGRYTSLATTYGFDYWGQGTLVTVSS
VL: EIVMTQSPATLSLSPGERATLSCRASQSVSSYLAWYQQKPGQAPRLLIYGASSRATGIPDRFSGSGSGTDFTLTISRLEPEDFAVYYCQQYHNWPYTFGQGTKLEIK
B7: E35-scFv LG50C (scFv, V domains shown)
VH: QMQLVQSGAEVKKPGASVKVSCKVSGYTLTELSIHWVRQAPGKGLEWMGGFDPEDGETIYAQKFQGRVTMTGDTSTDTAYLELSSLRSEDTALYYCATGRYTSLATTYGFDYWGQGTLVTVSS
VL: EIVMTQSPATLSLSPGERATLSCRASQSVSSYLAWYQQKPGQAPRLLIYCASSRATGIPDRFSGSGSGTDFTLTISRLEPEDFAVYYCQQYDNWPYTFGQGTKLEIK
B8: E35-scFv LD92L (scFv, V domains shown)
VH: QMQLVQSGAEVKKPGASVKVSCKVSGYTLTELSIHWVRQAPGKGLEWMGGFDPEDGETIYAQKFQGRVTMTGDTSTDTAYLELSSLRSEDTALYYCATGRYTSLATTYGFDYWGQGTLVTVSS
VL: EIVMTQSPATLSLSPGERATLSCRASQSVSSYLAWYQQKPGQAPRLLIYGASSRATGIPDRFSGSGSGTDFTLTISRLEPEDFAVYYCQQYLNWPYTFGQGTKLEIK
B9: E35-scFv LD92W (scFv, V domains shown)
VH: QMQLVQSGAEVKKPGASVKVSCKVSGYTLTELSIHWVRQAPGKGLEWMGGFDPEDGETIYAQKFQGRVTMTGDTSTDTAYLELSSLRSEDTALYYCATGRYTSLATTYGFDYWGQGTLVTVSS
VL: EIVMTQSPATLSLSPGERATLSCRASQSVSSYLAWYQQKPGQAPRLLIYGASSRATGIPDRFSGSGSGTDFTLTISRLEPEDFAVYYCQQYWNWPYTFGQGTKLEIK
B10: E35-scFv LD92G (scFv, V domains shown)
VH: QMQLVQSGAEVKKPGASVKVSCKVSGYTLTELSIHWVRQAPGKGLEWMGGFDPEDGETIYAQKFQGRVTMTGDTSTDTAYLELSSLRSEDTALYYCATGRYTSLATTYGFDYWGQGTLVTVSS
VL: EIVMTQSPATLSLSPGERATLSCRASQSVSSYLAWYQQKPGQAPRLLIYGASSRATGIPDRFSGSGSGTDFTLTISRLEPEDFAVYYCQQYGNWPYTFGQGTKLEIK
B11: E35-scFv LG50Y (scFv, V domains shown)
VH: QMQLVQSGAEVKKPGASVKVSCKVSGYTLTELSIHWVRQAPGKGLEWMGGFDPEDGETIYAQKFQGRVTMTGDTSTDTAYLELSSLRSEDTALYYCATGRYTSLATTYGFDYWGQGTLVTVSS
VL: EIVMTQSPATLSLSPGERATLSCRASQSVSSYLAWYQQKPGQAPRLLIYYASSRATGIPDRFSGSGSGTDFTLTISRLEPEDFAVYYCQQYDNWPYTFGQGTKLEIK
B12: E35-scFv LG50L (scFv, V domains shown)
VH: QMQLVQSGAEVKKPGASVKVSCKVSGYTLTELSIHWVRQAPGKGLEWMGGFDPEDGETIYAQKFQGRVTMTGDTSTDTAYLELSSLRSEDTALYYCATGRYTSLATTYGFDYWGQGTLVTVSS
VL: EIVMTQSPATLSLSPGERATLSCRASQSVSSYLAWYQQKPGQAPRLLIYLASSRATGIPDRFSGSGSGTDFTLTISRLEPEDFAVYYCQQYDNWPYTFGQGTKLEIK
B13: E35-scFv LD92R (scFv, V domains shown)
VH: QMQLVQSGAEVKKPGASVKVSCKVSGYTLTELSIHWVRQAPGKGLEWMGGFDPEDGETIYAQKFQGRVTMTGDTSTDTAYLELSSLRSEDTALYYCATGRYTSLATTYGFDYWGQGTLVTVSS
VL: EIVMTQSPATLSLSPGERATLSCRASQSVSSYLAWYQQKPGQAPRLLIYGASSRATGIPDRFSGSGSGTDFTLTISRLEPEDFAVYYCQQYRNWPYTFGQGTKLEIK
B14: E35-scFv LG50R (scFv, V domains shown)
VH: QMQLVQSGAEVKKPGASVKVSCKVSGYTLTELSIHWVRQAPGKGLEWMGGFDPEDGETIYAQKFQGRVTMTGDTSTDTAYLELSSLRSEDTALYYCATGRYTSLATTYGFDYWGQGTLVTVSS
VL: EIVMTQSPATLSLSPGERATLSCRASQSVSSYLAWYQQKPGQAPRLLIYRASSRATGIPDRFSGSGSGTDFTLTISRLEPEDFAVYYCQQYDNWPYTFGQGTKLEIK
B15: E35-scFv LG50N (scFv, V domains shown)
VH: QMQLVQSGAEVKKPGASVKVSCKVSGYTLTELSIHWVRQAPGKGLEWMGGFDPEDGETIYAQKFQGRVTMTGDTSTDTAYLELSSLRSEDTALYYCATGRYTSLATTYGFDYWGQGTLVTVSS
VL: EIVMTQSPATLSLSPGERATLSCRASQSVSSYLAWYQQKPGQAPRLLIYNASSRATGIPDRFSGSGSGTDFTLTISRLEPEDFAVYYCQQYDNWPYTFGQGTKLEIK
B16: E35-scFv LD92A (scFv, V domains shown)
VH: QMQLVQSGAEVKKPGASVKVSCKVSGYTLTELSIHWVRQAPGKGLEWMGGFDPEDGETIYAQKFQGRVTMTGDTSTDTAYLELSSLRSEDTALYYCATGRYTSLATTYGFDYWGQGTLVTVSS
VL: EIVMTQSPATLSLSPGERATLSCRASQSVSSYLAWYQQKPGQAPRLLIYGASSRATGIPDRFSGSGSGTDFTLTISRLEPEDFAVYYCQQYANWPYTFGQGTKLEIK
B17: E35-scFv LD92Q (scFv, V domains shown)
VH: QMQLVQSGAEVKKPGASVKVSCKVSGYTLTELSIHWVRQAPGKGLEWMGGFDPEDGETIYAQKFQGRVTMTGDTSTDTAYLELSSLRSEDTALYYCATGRYTSLATTYGFDYWGQGTLVTVSS
VL: EIVMTQSPATLSLSPGERATLSCRASQSVSSYLAWYQQKPGQAPRLLIYGASSRATGIPDRFSGSGSGTDFTLTISRLEPEDFAVYYCQQYQNWPYTFGQGTKLEIK
B18: E35-scFv LD92V (scFv, V domains shown)
VH: QMQLVQSGAEVKKPGASVKVSCKVSGYTLTELSIHWVRQAPGKGLEWMGGFDPEDGETIYAQKFQGRVTMTGDTSTDTAYLELSSLRSEDTALYYCATGRYTSLATTYGFDYWGQGTLVTVSS
VL: EIVMTQSPATLSLSPGERATLSCRASQSVSSYLAWYQQKPGQAPRLLIYGASSRATGIPDRFSGSGSGTDFTLTISRLEPEDFAVYYCQQYVNWPYTFGQGTKLEIK
B19: E35-scFv LD92T (scFv, V domains shown)
VH: QMQLVQSGAEVKKPGASVKVSCKVSGYTLTELSIHWVRQAPGKGLEWMGGFDPEDGETIYAQKFQGRVTMTGDTSTDTAYLELSSLRSEDTALYYCATGRYTSLATTYGFDYWGQGTLVTVSS
VL: EIVMTQSPATLSLSPGERATLSCRASQSVSSYLAWYQQKPGQAPRLLIYGASSRATGIPDRFSGSGSGTDFTLTISRLEPEDFAVYYCQQYTNWPYTFGQGTKLEIK
B20: E35-scFv LG50V (scFv, V domains shown)
VH: QMQLVQSGAEVKKPGASVKVSCKVSGYTLTELSIHWVRQAPGKGLEWMGGFDPEDGETIYAQKFQGRVTMTGDTSTDTAYLELSSLRSEDTALYYCATGRYTSLATTYGFDYWGQGTLVTVSS
VL: EIVMTQSPATLSLSPGERATLSCRASQSVSSYLAWYQQKPGQAPRLLIYVASSRATGIPDRFSGSGSGTDFTLTISRLEPEDFAVYYCQQYDNWPYTFGQGTKLEIK

This assay deals with T1, human GM-CSFRα, full length on cells. Briefly: cell-based or functional assay.
Turning to B1, the “IC50, TF-1 cell proliferation” value came to 1.3 µg/mL.

Regarding B2, the “IC50, TF-1 cell proliferation” value stood at 1.86 µg/mL.

As for B3, the “IC50, TF-1 cell proliferation” value was determined as 29.9 µg/mL.

Consider B4, for which the “IC50, TF-1 cell proliferation” value came to 4.29 µg/mL.

On to B5, for which the “IC50, TF-1 cell proliferation” value was 0.507 µg/mL.

Regarding B6, the “IC50, TF-1 cell proliferation” value was 0.53 µg/mL.

Regarding B7, the “IC50, TF-1 cell proliferation” value was 25.7 µg/mL.

As to B8, the “IC50, TF-1 cell proliferation” value turned out to be 0.42 µg/mL.

In the case of B9, the “IC50, TF-1 cell proliferation” value came out at 0.342 µg/mL.

With B10, the “IC50, TF-1 cell proliferation” value is 0.522 µg/mL.

For B11, the “IC50, TF-1 cell proliferation” value worked out at 32 µg/mL.

On to B12, for which the “IC50, TF-1 cell proliferation” value turned out to be 3.9 µg/mL.

For the molecule B13, the “IC50, TF-1 cell proliferation” value is 0.495 µg/mL.

As to B14, the “IC50, TF-1 cell proliferation” value is 2.79 µg/mL.

For B15, the “IC50, TF-1 cell proliferation” value amounted to 1.59 µg/mL.

Regarding B16, the “IC50, TF-1 cell proliferation” value is 0.282 µg/mL.

Take B17: the “IC50, TF-1 cell proliferation” value amounted to 0.328 µg/mL.

On to B18, for which the “IC50, TF-1 cell proliferation” value is 0.387 µg/mL.

With B19, the “IC50, TF-1 cell proliferation” value stood at 0.494 µg/mL.

On to B20, for which the “IC50, TF-1 cell proliferation” value was determined as 1.4 µg/mL.
